Experimental data from article PMC6429771, “Identification of new glutamate decarboxylases from Streptomyces for efficient production of γ-aminobutyric acid in engineered Escherichia coli” (Journal of Biological Engineering, 2019).

Experiments:
Experiment in all cases: GABA formation by Berthelot reaction, A630, Lineweaver-Burk plot
[1] = substrate: N[C@@H](CCC(=O)O)C(=O)O; format: biochemical, Streptomyces toxytricini; details: 0.01 mM PLP, 200 mM Na2HPO4-citric acid buffer pH 5.2, 37 °C, 5-100 mM MSG
Text: GABA formation by Berthelot reaction, A630, Lineweaver-Burk plot on StGAD

[2] = substrate: N[C@@H](CCC(=O)O)C(=O)O; format: biochemical, Streptomyces chromofuscus; details: 0.01 mM PLP, 200 mM Na2HPO4-citric acid buffer pH 4.2, 37 °C, 5-100 mM MSG
Text: GABA formation by Berthelot reaction, A630, Lineweaver-Burk plot on ScGAD

[3] = substrate: N[C@@H](CCC(=O)O)C(=O)O; format: biochemical, Escherichia coli; details: 0.01 mM PLP, 200 mM Na2HPO4-citric acid buffer pH 4.0, 37 °C, 5-100 mM MSG
Text: GABA formation by Berthelot reaction, A630, Lineweaver-Burk plot on GadB

B1: StGAD (Streptomyces toxytricini) (protein)
chain: MALHKTKDVTGGDTGTDVFTTALSGRVLPKYRMPEEHSPSEAVYALLRNELLLDGNAAQNLATFCTTWSDDGVHRLMNECLDKNMVDKDEYPQTAEIEARCVNILAHLWHAPAEDGPATGCSTTGSSEAAMLGGLALKWRWRARRRAQGLPADRPNLVCGPVQVCWEKFARYFDVELRQIPLEEDATGLRPHQLAEYVDENTIGVVAILGVTYTCDYEPVADIAAALDAIQQEHGWDVPIHVDGASGGLVAPFLHPDVVWDFALPRVASINTSGHKYGLAPLGVGWVVWRTADLLPPELVFDVDYLGGDMPTFALNFSRPGGEAIAQYYLFLRLGRSGYRSVHQSCADTARFLAGEIAAMGPFTLLYDGQGALPAVSYRLTDPAAAGFTLYDLSDRLRMRGWQVPAYPLPARRDDTVIQRVLIRHGVTLDQIALLAEDMRRALDHLRAAPPTQPPTAPRSGFHH
notes: full-length ORF (1395 bp, about 464 residues, 53 kDa) in pET28a (NdeI/HindIII), His6-tagged, expressed in E. coli BL21(DE3), Ni-NTA purified
For B1, the Km [1] was 7.67 ± 0.55 mM, the Vmax [1] was 0.226 ± 0.01 µmol/min/mg and the kcat [1] was 0.2 ± 0.02 s⁻¹. The kcat/Km [1] was 26 ± 3 M⁻¹ s⁻¹.

B2: ScGAD (Streptomyces chromofuscus) (protein)
chain: MPLHQGADRAADIPEEDRAELRRLSLNPFYGEADPVSEMTSAPPTQRLPEGPTPPHTAYQLVHDELMLDGNSRLNLATFVTTWMEPQAGVLMAECQDKNMIDKDEYPRTAELERRCVAMLADLWNAPDPATAVGCSTTGSSEACMLAGLALKRRWAKRNAARYPATARPNLVMGVNVQVCWEKFCTFWEVEARLVPMEGDRFHLDPQAAADLCDEDTIGVVAVLGSTFDGSYEPVAELCAVLDALQERTGLDVPVHVDGASGAMIAPFLDEDLVWDFRLPRVSSINTSGHKYGLVYPGVGWALWRSPAELPEELVFRVNYLGGDMPTFALNFSRPGAQVVAQYYTFLRLGRDGYRAVQQTARDIATTLSARIERLGGFRLLTRGDQLPVFAFTTASDVTNFDVFDVSRRLREHGWLVPAYTFPAHREDLSVLRVVCRNGFSADLAAMLVADLKRVLPELRAQERPMDRDPSAATAFHH
Protein B2 has a Km [2] of 23.25 ± 2.07 mM, a Vmax [2] of 29.9 ± 2.16 µmol/min/mg and a kcat [2] of 28.1 ± 1.99 s⁻¹. For the same protein, the kcat/Km [2] was 1210 ± 90 M⁻¹ s⁻¹.

B3: GadB (Escherichia coli K-12) (protein)
chain: MDKKQVTDLRSELLDSRFGAKSISTIAESKRFPLHEMRDDVAFQIINDELYLDGNARQNLATFCQTWDDENVHKLMDLSINKNWIDKEEYPQSAAIDLRCVNMVADLWHAPAPKNGQAVGTNTIGSSEACMLGGMAMKWRWRKRMEAAGKPTDKPNLVCGPVQICWHKFARYWDVELREIPMRPGQLFMDPKRMIEACDENTIGVVPTFGVTYTGNYEFPQPLHDALDKFQADTGIDIDMHIDAASGGFLAPFVAPDIVWDFRLPRVKSISASGHKFGLAPLGCGWVIWRDEEALPQELVFNVDYLGGQIGTFAINFSRPAGQVIAQYYEFLRLGREGYTKVQNASYQVAAYLADEIAKLGPYEFICTGRPDEGIPAVCFKLKDGEDPGYTLYDLSERLRLRGWQVPAFTLGGEATDIVVMRIMCRRGFEMDFAELLLEDYKASLKYLSDHPKLQGIAQQNSFKHT
B3 was tested, and the Km [3] was 35.83 ± 2.40 mM, the Vmax [3] was 12.5 ± 0.72 µmol/min/mg and the kcat [3] was 11 ± 0.88 s⁻¹. The kcat/Km [3] was 310 ± 20 M⁻¹ s⁻¹.
